{
  "source": "patent US20080058276A1",
  "about": "“ALZHEIMER'S DISEASE THERAPEUTICS BASED ON PIN-1 CATALYZED CONFORMATIONAL CHANGES IN PHOSPHORYLATED AMYLOID PRECURSOR PROTEIN” (CORNELL RESEARCH FOUNDATION, INC., priority 2006, published 2008)",
  "key": {"Pin1 WW domain": {"target": "T1, Pin1 WW domain (Homo sapiens, UniProt Q13526)", "T1 construct": "made in house; host or cells: bacteria", "T1 sequence (Q13526 5-39 limits assumed)": "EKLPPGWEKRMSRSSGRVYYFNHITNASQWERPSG", "assay": "Competitive GST-WW pulldown of 32P-AICD", "assay_type": "binding", "settings": "increasing amounts of phosphopeptide", "method": "For competitive binding assays, synthetic peptides, APPtide (EVDAAVp[…] (SEQ ID NO: 13), and its non-phosphorylated counterpart, were synthesized and purchased from Merck Co. The accuracy and purity were identified by mass spectroscopy. APPtide was dissolved in the binding buffer described in Lu et al., “A Function of WW Domains as Phosphoserine- or Phosphothreonine-binding Modules,” Science 283:1325-1328 (1999), which is hereby incorporated by reference in its entirety, and added into the GST pull down reaction for the competitive binding assay (Lu et al., “A Function of WW Domains as Phosphoserine- or Phosphothreonine-binding Modules,” Science 283:1325-1328 (1999), which is hereby incorporated by reference in its entirety).\nTo identify the Pin1-binding site in APP, alanine was substituted for Thr668, the only Thr/Ser-Pro motif in the APP intracellular domain (“AICD”). […] AICD, but not AICD^T668A, was phosphorylated by Cdc2 (Suzuki et al., “Cell Cycle-dependent Regulation of the Phosphorylation and Metabolism of the Alzheimer Amyloid Precursor Protein,” Embo J 13(5): 1114-22 (1994), which is hereby incorporated by reference in its entirety)."}, "APP": {"target": "T2, APP (Homo sapiens, UniProt P05067, T743A)", "T2 construct": "expressed in transfected cells; host or cells: N18 neuroblastoma cells transfected with HA-APP (from APP/pCMV)", "assay": "GST-Pin1 pulldown of APP and its mutants", "assay_type": "binding", "settings": "expressed in mitotic cells"}, "[1]": {"target": "T3, pThr668-Pro motif in APP (21-residue phosphopeptide G659-Q679 of APP) (Homo sapiens, UniProt P05067)", "T3 construct": "isomerization of the pThr668-Pro bond in a 21-residue phosphopeptide (G659-Q679 of APP); made in house; host or cells: peptide chemically synthesized; Pin1 recombinant (bacteria, as said in general terms)", "assay": "NMR (ROESY) analysis of Pin1-catalyzed cis/trans isomerization of the pThr668-Pro bond", "assay_type": "biochemical", "protocol": "All experiments were recorded at 25° C. on a Varian Inova 600 MHz spectrometer with the ^1H carrier set on water. ROESY data sets were acquired with spectral widths of 6 kHz (8 kHz) in t1 (t2) and 640 (2048) complex data points, and were processed as described in Ramelot & Nicholson, “Phosphorylation-induced Structural Changes in the Amyloid Precursor Protein Cytoplasmic Tail Detected by NMR,” J Mol Biol 307(3):871-84 (2001), which is hereby incorporated by reference in its entirety. Peak intensities were obtained using Pipp (Garrett et al., “A Common-sense Approach to Peak-picking in 2-Dimensional, 3-Dimensional, and 4-Dimensional Spectra Using Automatic Computer-analysis of Contour Diagrams,” J Magn Reson 95:214-20 (1991), which is hereby incorporated by reference in its entirety), and curve fits and error analyses were performed using SigmaPlot (Systat Software, Inc.). […] Ict/Icc=kct^cat[exp(kextm)−1]/[ktc^catexp(kextm)+kct^cat] Itc/Itt=ktc^cat[exp(kextm)−1]/[kct^catexp(kextm)+ktc^cat] where kex=kct^cat+ktc^cat, and tm corresponds to the ROESY mixing time. The desired rate constants were extracted by recording ROESY spectra with different mixing times and fitting the intensity ratios obtained to the above equations. ^15N—^1H HSQC data sets were acquired with spectral widths of 1.4 kHz (10 kHz) in t1 (t2) and 512 (2048) complex data points, and were processed as described in Ramelot & Nicholson, “Phosphorylation-induced Structural Changes in the Amyloid Precursor Protein Cytoplasmic Tail Detected by NMR,” J Mol Biol 307(3):871-84 (2001), which is hereby incorporated by reference in its entirety.\nIn the ROESY spectrum, the intensities of exchange and diagonal peaks for a two-state isomerization reaction explicitly depend on the forward (“kct^cat”) and backward (“ktc^cat”) rate constants (FIG. 5B), and on the mixing time (“tm”)."}, "CHO-APP cells": {"tested_on": "CHO-APP cells", "assay": "Total Aβ secretion (ELISA) after Pin1 overexpression in CHO-APP cells", "assay_type": "cell-based, Chinese hamster", "settings": "asynchronous or mitotic cells"}, "CHO cells": {"tested_on": "CHO cells", "assay": "Total Aβ secretion (ELISA) after co-transfection of Pin1 and APP751 in CHO cells", "assay_type": "cell-based, Chinese hamster", "settings": "Pin1 overexpression with APP751, asynchronous or mitotic cells"}, "[2]": {"settings": "linear sequence; cited from earlier work"}, "[3]": {"assay": "NMR (2D 1H-1H TOCSY and 1D 31P) determination of cis and trans populations of phosphopeptide", "assay_type": "physicochemical", "settings": "pThr-Pro bond, NMR on reaction mixture", "description": "The cis conformation of the pThr-Pro motif in AICD is unique from the trans isomer in that it is stabilized by different hydrogen bonds, and it is more extended in backbone conformation, aside from the kink of the cis peptide bond (Ramelot & Nicholson, “Phosphorylation-induced Structural Changes in the Amyloid Precursor Protein Cytoplasmic Tail Detected by NMR,” J Mol Biol 307(3):871-84 (2001), which is hereby incorporated by reference in its entirety). It was hypothesized that the cis conformation could be stabilized by formation of a covalent bond between V667 NH and E670 COO— (hydrogen bonded in the NMR structure), thereby stabilizing the cis isomer relative to the trans. A 6-residue phosphopeptide corresponding to APP residues V667-R72 ([NH2]-V-pT-P-E-E-R-resin (SEQ ID NO: 1)) was commercially synthesized with an orthogonal blocking group on E4 (Tufts Core Facility), and sent on the resin. […] The spectra show two cis populations that most likely reflect different hydrogen bond geometries adopted in the cis isomer (Ramelot & Nicholson, “Phosphorylation-induced Structural Changes in the Amyloid Precursor Protein Cytoplasmic Tail Detected by NMR,” J Mol Biol 307(3):871-84 (2001), which is hereby incorporated by reference in its entirety)."}, "WW domain of Pin1": {"target": "WW domain of Pin1 (Homo sapiens, UniProt Q13526)", "sequence (Q13526 5-39 limits assumed)": "as above", "assay": "15N-1H HSQC titration of {15N}-WW with peptide", "assay_type": "binding", "settings": "relative to linear pAICD", "method": "The pThr668-Pro peptides were synthesized, purified, and analyzed as reported in (Ramelot & Nicholson, “Phosphorylation-induced Structural Changes in the Amyloid Precursor Protein Cytoplasmic Tail Detected by NMR,” J Mol Biol 307(3):871-84 (2001), which is hereby incorporated by reference in its entirety). […] For ^15N—^1H HSQC experiments, ^15N-E670-pT668 peptide was dissolved in the same buffer adjusted to pH 6.7, with subsequent addition of an equimolar amount of the WW domain (0.2 mM). All experiments were recorded at 25° C. on a Varian Inova 600 MHz spectrometer with the ^1H carrier set on water. ROESY data sets were acquired with spectral widths of 6 kHz (8 kHz) in t1 (t2) and 640 (2048) complex data points, and were processed as described in Ramelot & Nicholson, “Phosphorylation-induced Structural Changes in the Amyloid Precursor Protein Cytoplasmic Tail Detected by NMR,” J Mol Biol 307(3):871-84 (2001), which is hereby incorporated by reference in its entirety. […]\nNatural abundance peptide (either the linear or cyclic pAICD peptide) was incrementally added to {^15N}-WW and peak shifts were monitored via ^15N—^1H HSQC spectra."}},
  "note": "Bridge positions count the residues as written; N and C are the ends. Square brackets hold non-standard residues; d marks the D form. Ends that are not written are not given here. pT = C[C@@H](OP(=O)(O)O)[C@H](N)C(=O)O; resin = not defined here",
  "data": [
    {"substance": "EVDAAVpTPEERHLS (SEQ ID NO: 13) (EVDAAV[pT]PEERHLS) [pThr668-containing APP peptide]", "values": [
      {"measurement": "competition of 32P-AICD binding to GST-WW", "setting": "Pin1 WW domain", "result": "effectively competed"}
    ]},
    {"substance": "Pin1: peptidyl-prolyl isomerase that specifically isomerizes pSer/Thr-Pro bonds; GenBank Accession No. U49070", "values": [
      {"measurement": "binding to APP^T668A mutant", "setting": "APP", "result": "failed to bind"},
      {"measurement": "difference between kct^cat and ktc^cat rates", "setting": "[1]", "result": 10, "unit": "fold"},
      {"measurement": "acceleration of pThr668-Pro isomerization rate over typical uncatalyzed isomerization rates for pThr-Pro peptides", "setting": "[1]; 3 mM peptide, 0.05 mM Pin1, 25° C.", "result": "several orders of magnitude"},
      {"measurement": "ROESY exchange cross peaks (E670-HN cis/trans)", "setting": "[1]; catalytic amount of enzyme, 60:1 peptide:enzyme", "result": "exchange cross peaks were observed"},
      {"measurement": "average lifetime of the cis isomeric state", "setting": "[1]; in presence of Pin1", "result": "~0.05", "unit": "s"},
      {"measurement": "average lifetime of the trans isomeric state", "setting": "[1]; in presence of Pin1", "result": "~0.5", "unit": "s"},
      {"measurement": "acceleration of isomerization of the phosphorylated Thr668-Pro motif in APP", "setting": "[1]; visualized by NMR", "result": "over 1000 fold"},
      {"measurement": "Aβ secretion", "setting": "CHO-APP cells", "result": "significantly reduced"},
      {"measurement": "Aβ secretion", "setting": "CHO cells", "result": "significantly reduced"}
    ]},
    {"substance": "[NH2]-V-pT-P-E-E-R-resin (SEQ ID NO: 1) (H-V[pT]PEER-resin; not fully specified; printed as [NH2]-V-pT-P-E-E-R-resin; reading uncertain) [6-residue phosphopeptide, linear phosphopeptide corresponding to APP residues V667-R72]", "values": [
      {"measurement": "cis conformation", "setting": "[2]", "result": 10, "unit": "%"},
      {"measurement": "trans conformation", "setting": "[2]", "result": 90, "unit": "%"}
    ]},
    {"substance": "cyclic pAICD: VpTPEER (SEQ ID NO: 1) phosphopeptide cyclized by covalent bond between V667 NH and E670 COO- (V[pT]PEER; lactam N-4)", "values": [
      {"measurement": "cis population", "setting": "[3]", "result": "~30", "unit": "%"},
      {"measurement": "trans population", "setting": "[3]", "result": 70, "unit": "%"},
      {"measurement": "WW domain peak shifts upon saturation with peptide", "setting": "WW domain of Pin1", "result": "smaller peak shifts"}
    ]}
  ]
}
